The results in this text go back to patent publication US20160046713A1 (INNATE PHARMA, published 2016).

Experiment [1] concerns the target T1, human KIR3DL1 (CD158e1) on cells (human, UniProt P43629 22-444).
T1 construct: Present on donor NK and T cells
Kind of experiment: two colour immunofluorescence on polyclonal NK cell populations and clones. The source says:
mAbs were generated by immunizing 5 week old Balb C mice with polyclonal IL-2 activated NK population. […] The reactivity of AZ158 was further analyzed on NK cell populations and clones in combination with additional antibodies, including EB6 ([…], CD158a), GL183 (anti-p58.2/50.2, CD158b), PAX180 (anti-p50.3) and FES172 (anti-p50.3), as well as Z27 and Q66, and it was observed that AZ158 reacted with the same cell subset stained by the anti-KIR3DL1 and anti-KIR3DL2 mAbs. Similar results were also observed using a panel of NK cell clones expressing different HLA class I specific NK receptors.

Experiment [2] has as its target T2, human KIR3DS1 (CD158e2) on cells (human, UniProt P43629 22-381).
T2 construct: Present on donor NK and T cells
Kind of experiment: flow cytometry with AZ158-PE on healthy donor PBMC gated on CD3+ T lymphocytes.

The target in experiment [3] is T3, KIR3DL2 domain 1 construct (V5-tagged, CD24-GPI anchored) on HEK-293T/17 cells (human, UniProt P43630 139-238).
T3 construct: also called pcDNA3.1/KIR3DL2 domain 1; KIR3DL2 extracellular domain 1
T3 sequence: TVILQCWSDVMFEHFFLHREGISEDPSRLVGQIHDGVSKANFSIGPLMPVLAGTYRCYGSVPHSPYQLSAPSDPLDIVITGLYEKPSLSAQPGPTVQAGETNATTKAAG
As to the kind of experiment: flow cytometry on transfected HEK-293T/17 cells, goat anti-human-PE detection. On the procedure:
(§1) Transfections were performed using 5 μg of the different pcDNA3.1/KIR3DL2 domain 0, pcDNA3.1/KIR3DL2 domain 1 or pcDNA3.1/KIR3DL2 domain 2 constructs using Lipofectamine 2000 according to manufacturer instructions. To ensure DNA purity for transfection, Maxi-prep endotoxin free kit from Qiagen was used. The Lipofectamine/DNA ratio used was fixed at 2/1. Cells were harvested 48 hours after transfection for flow cytometry experiments.
(§2) Cells were harvested and stained in PBS 1×/BSA 0.2%/EDTA 2 mM buffer during 1H at 4° C. using 5 μg/ml of chiAZ158 antibody. After two washes in staining buffer, cells were stained for 30 min at 4° C. with anti-V5 antibody FITC (0.1 μl per well) and goat anti-human (H+L)-PE antibodies (1/200). After two washes, stainings were acquired on a BD FACS Canto II and analyzed using the FlowJo software.
(§3) Results are shown in FIGS. 7-10, with V5-FITC indicated on the y-axis and chAZ158-GAH-PE on the x-axis. […] No binding of the chiAZ158 antibody could be detected on KIR3DL2 domain 1 (FIG. 9) or domain 2 (FIG. 10). Therefore, it can be concluded from this flow cytometry experiment that the chAZ158 antibody binds to the KIR3DL2 extracellular domain 0 but not to domains 1 and 2.

For experiment [4], the target named is T4, KIR3DL2 domain 2 construct (V5-tagged, CD24-GPI anchored) on HEK-293T/17 cells (human, UniProt P43630 239-340).
T4 construct: also called pcDNA3.1/KIR3DL2 domain 2; KIR3DL2 extracellular domain 2
The description is as above. As for the experimental part: as §1, §2, §3

Experiment [5] has as its target T5, KIR3DL1 recombinant protein (R&D systems) (Homo sapiens (Human), UniProt P43629 22-340).
T5 construct: Bought protein; also called KIR3DL1 chip; immobilized KIR3DL1
Kind of experiment: SPR (Biacore T100), receptor immobilized on chip, antibody injected at 12 µg/ml. As for the experimental part: The binding of chimeric AZ158 (“chAZ158”, see Example 3) to KIR3DL2 and KIR3DL1 recombinant proteins (R&D systems) was analyzed by Surface Plasmon Resonance (SPR) using a Biacore T100 apparatus. […] Antibody was injected at a constant concentration of 12 μg/ml over the KIR3DL2 and KIR3DL1 flow-cells. Background signals were subtracted online by co-injecting onto the reference flow cell (dextran alone). Sensorgrams are representative of three independent experiments.

T2 sequence (P43629 other isoform, or with tags, fused parts or gaps limits assumed): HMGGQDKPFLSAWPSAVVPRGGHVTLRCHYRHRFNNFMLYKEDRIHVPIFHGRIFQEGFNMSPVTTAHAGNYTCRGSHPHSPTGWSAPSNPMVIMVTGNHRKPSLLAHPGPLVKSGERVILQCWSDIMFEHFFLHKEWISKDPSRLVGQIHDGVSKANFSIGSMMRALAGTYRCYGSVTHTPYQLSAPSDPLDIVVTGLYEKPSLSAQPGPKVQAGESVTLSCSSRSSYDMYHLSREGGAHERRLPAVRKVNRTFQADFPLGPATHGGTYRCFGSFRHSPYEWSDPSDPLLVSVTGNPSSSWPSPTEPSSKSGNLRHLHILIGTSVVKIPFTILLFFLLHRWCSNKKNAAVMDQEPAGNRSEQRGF
T4 sequence (P43630 other isoform, or with tags, fused parts or gaps limits assumed): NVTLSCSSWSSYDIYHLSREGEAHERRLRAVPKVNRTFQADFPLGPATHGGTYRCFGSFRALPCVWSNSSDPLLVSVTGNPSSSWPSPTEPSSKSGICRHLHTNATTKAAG
T5 sequence (P43629 22-340 limits assumed): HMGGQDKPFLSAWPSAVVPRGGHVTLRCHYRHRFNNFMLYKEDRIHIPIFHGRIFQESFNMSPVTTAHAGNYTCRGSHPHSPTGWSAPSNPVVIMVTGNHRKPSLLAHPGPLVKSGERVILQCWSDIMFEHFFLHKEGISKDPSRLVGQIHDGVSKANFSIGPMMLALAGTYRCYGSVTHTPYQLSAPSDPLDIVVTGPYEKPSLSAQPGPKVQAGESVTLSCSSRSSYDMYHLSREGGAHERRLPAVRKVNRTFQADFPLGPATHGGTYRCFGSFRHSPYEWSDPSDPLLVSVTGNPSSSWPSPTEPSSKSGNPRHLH
T1 sequence (P43629 22-444 limits assumed): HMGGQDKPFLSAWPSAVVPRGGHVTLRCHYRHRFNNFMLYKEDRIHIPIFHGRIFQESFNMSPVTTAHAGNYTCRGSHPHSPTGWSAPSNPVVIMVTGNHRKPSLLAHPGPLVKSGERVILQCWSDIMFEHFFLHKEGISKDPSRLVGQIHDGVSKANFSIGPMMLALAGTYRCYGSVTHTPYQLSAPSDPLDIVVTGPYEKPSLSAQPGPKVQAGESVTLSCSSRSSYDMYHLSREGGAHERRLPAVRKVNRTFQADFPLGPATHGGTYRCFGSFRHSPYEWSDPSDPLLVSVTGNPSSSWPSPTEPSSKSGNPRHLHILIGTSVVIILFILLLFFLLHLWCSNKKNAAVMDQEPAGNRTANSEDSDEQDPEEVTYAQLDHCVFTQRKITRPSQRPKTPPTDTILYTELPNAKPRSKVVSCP

B1: AZ158 (murine monoclonal antibody) (antibody, mouse IgG2b, V domains shown)
VH: QVQLKESGPGLVAPSQSLSITCTVSGFSLTSFGVHWVRQPPGKGLEWLGVIWAGGSTNYNSALMSRLSISKDNSKSQVFLKMNSLQNDDTAMYYCARGNSNHYVSSFYYFDYWGQGTTLTVSS
VL: DIQMTQSPSSLSASLGGKVTITCKASQDINKYIAWYQHKPGKGPRLLIHYTSTLQPGIPSRFSGSGSGRDYSFSISNLEPEDITTYYCLQYDNLWTFGGGTKLEIK
notes: also called mAb AZ158; AZ158-PE
As for B1, the binding result in experiment [1] and in experiment [2] was “binds” throughout.

B2: chAZ158 (chimeric AZ158, human IgG1-kappa, with the MKV6-derived kappa chain) (antibody, V domains shown)
VH: B1 VH
VL: DIQMTQSPSSLSASLGGKVTITCKASQDINKYIAWYQHKPGKGPRLLIHYTSTLQPGIPSRFSGSGSGRDYSFSISNLEPEDITTYYCLQYDNLWTFGGGTKLEIKR
notes: also called chiAZ158; AZ158 chimeric antibody
In the case of B2, the binding result in experiment [3] was “no binding (tested: 5 µg/ml)”; in experiment [4], “no binding (tested: 5 µg/ml)”; in experiment [5], “binds”.
